# IntAct's records for PubMed 29892012
# B1: Abl interactor 2 (Homo sapiens), Q9NYB9 (parent)
# chain: MAELQMLLEEEIPGGRRALFDSYTNLERVADYCENNYIQSADKQRALEETKAYTTQSLASVAYLINTLANNVLQMLDIQASQLRRMESSINHISQTVDIHKEKVARREIGILTTNKNTSRTHKIIAPANLERPVRYIRKPIDYTILDDIGHGVKWLLRFKVSTQNMKMGGLPRTTPPTQKPPSPPMSGKGTLGRHSPYRTLEPVRPPVVPNDYVPSPTRNMAPSQQSPVRTASVNQRNRTYSSSGSSGGSHPSSRSSSRENSGSGSVGVPIAVPTPSPPSVFPAPAGSAGTPPLPATSASAPAPLVPATVPSSTAPNAAAGGAPNLADGFTSPTPPVVSSTPPTGHPVQFYSMNRPASRHTPPTIGGSLPYRRPPSITSQTSLQNQMNGGPFYSQNPVSDTPPPPPPVEEPVFDESPPPPPPPEDYEEEEAAVVEYSDPYAEEDPPWAPRSYLEKVVAIYDYTKDKEDELSFQEGAIIYVIKKNDDGWYEGVMNGVTGLFPGNYVESIMHYSE
# partner: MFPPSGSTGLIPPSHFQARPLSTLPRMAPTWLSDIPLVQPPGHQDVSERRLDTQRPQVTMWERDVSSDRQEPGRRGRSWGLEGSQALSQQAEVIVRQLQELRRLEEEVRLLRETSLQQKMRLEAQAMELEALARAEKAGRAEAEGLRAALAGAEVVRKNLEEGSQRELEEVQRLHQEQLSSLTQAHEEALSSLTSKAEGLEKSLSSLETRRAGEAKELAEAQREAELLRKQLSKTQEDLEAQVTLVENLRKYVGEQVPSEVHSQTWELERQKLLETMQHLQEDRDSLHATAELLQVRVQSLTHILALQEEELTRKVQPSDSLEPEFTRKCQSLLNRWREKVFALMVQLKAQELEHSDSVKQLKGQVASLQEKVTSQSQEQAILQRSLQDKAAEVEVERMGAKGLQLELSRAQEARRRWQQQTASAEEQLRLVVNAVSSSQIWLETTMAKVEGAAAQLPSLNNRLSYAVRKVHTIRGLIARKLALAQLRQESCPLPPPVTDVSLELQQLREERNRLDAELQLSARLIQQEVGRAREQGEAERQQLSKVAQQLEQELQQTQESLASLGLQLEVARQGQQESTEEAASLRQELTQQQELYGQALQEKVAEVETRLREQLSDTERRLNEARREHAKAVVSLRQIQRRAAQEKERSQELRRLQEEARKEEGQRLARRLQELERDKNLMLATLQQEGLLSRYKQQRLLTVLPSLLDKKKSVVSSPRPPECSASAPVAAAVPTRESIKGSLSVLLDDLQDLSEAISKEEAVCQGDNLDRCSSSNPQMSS
# B2: F-box only protein 11 (Homo sapiens), Q86XK2 (parent)
# chain: MNSVRAANRRPRRVSRPRPVQQQQQQPPQQPPPQPPQQQPPQQQPPPPPQQQQQQQPPPPPPPPPPLPQERNNVGERDDDVPADMVAEESGPGAQNSPYQLRRKTLLPKRTACPTKNSMEGASTSTTENFGHRAKRARVSGKSQDLSAAPAEQYLQEKLPDEVVLKIFSYLLEQDLCRAACVCKRFSELANDPILWKRLYMEVFEYTRPMMHPEPGKFYQINPEEYEHPNPWKESFQQLYKGAHVKPGFAEHFYSNPARYKGRENMLYYDTIEDALGGVQEAHFDGLIFVHSGIYTDEWIYIESPITMIGAAPGKVADKVIIENTRDSTFVFMEGSEDAYVGYMTIRFNPDDKSAQHHNAHHCLEITVNCSPIIDHCIIRSTCTVGSAVCVSGQGACPTIKHCNISDCENVGLYITDHAQGIYEDNEISNNALAGIWVKNHGNPIIRRNHIHHGRDVGVFTFDHGMGYFESCNIHRNRIAGFEVKAYANPTVVRCEIHHGQTGGIYVHEKGRGQFIENKIYANNFAGVWITSNSDPTIRGNSIFNGNQGGVYIFGDGRGLIEGNDIYGNALAGIQIRTNSCPIVRHNKIHDGQHGGIYVHEKGQGVIEENEVYSNTLAGVWVTTGSTPVLRRNRIHSGKQVGVYFYDNGHGVLEDNDIYNHMYSGVQIRTGSNPKIRRNKIWGGQNGGILVYNSGLGCIEDNEIFDNAMAGVWIKTDSNPTLRRNKIHDGRDGGICIFNGGRGLLEENDIFRNAQAGVLISTNSHPILRKNRIFDGFAAGIEITNHATATLEGNQIFNNRFGGLFLASGVNVTMKDNKIMNNQDAIEKAVSRGQCLYKISSYTSYPMHDFYRCHTCNTTDRNAICVNCIKKCHQGHDVEFIRHDRFFCDCGAGTLSNPCTLAGEPTHDTDTLYDSAPPIESNTLQHN
# B3: E3 ubiquitin-protein ligase LNX (Homo sapiens), Q8TBB1 (parent)
# chain: MNQPESANDPEPLCAVCGQAHSLEENHFYSYPEEVDDDLICHICLQALLDPLDTPCGHTYCTLCLTNFLVEKDFCPMDRKPLVLQHCKKSSILVNKLLNKLLVTCPFREHCTQVLQRCDLEHHFQTSCKGASHYGLTKDRKRRSQDGCPDGCASLTATAPSPEVSAAATISLMTDEPGLDNPAYVSSAEDGQPAISPVDSGRSNRTRARPFERSTIRSRSFKKINRALSVLRRTKSGSAVANHADQGRENSENTTAPEVFPRLYHLIPDGEITSIKINRVDPSESLSIRLVGGSETPLVHIIIQHIYRDGVIARDGRLLPGDIILKVNGMDISNVPHNYAVRLLRQPCQVLWLTVMREQKFRSRNNGQAPDAYRPRDDSFHVILNKSSPEEQLGIKLVRKVDEPGVFIFNVLDGGVAYRHGQLEENDRVLAINGHDLRYGSPESAAHLIQASERRVHLVVSRQVRQRSPDIFQEAGWNSNGSWSPGPGERSNTPKPLHPTITCHEKVVNIQKDPGESLGMTVAGGASHREWDLPIYVISVEPGGVISRDGRIKTGDILLNVDGVELTEVSRSEAVALLKRTSSSIVLKALEVKEYEPQEDCSSPAALDSNHNMAPPSDWSPSWVMWLELPRCLYNCKDIVLRRNTAGSLGFCIVGGYEEYNGNKPFFIKSIVEGTPAYNDGRIRCGDILLAVNGRSTSGMIHACLARLLKELKGRITLTIVSWPGTFL
# partner: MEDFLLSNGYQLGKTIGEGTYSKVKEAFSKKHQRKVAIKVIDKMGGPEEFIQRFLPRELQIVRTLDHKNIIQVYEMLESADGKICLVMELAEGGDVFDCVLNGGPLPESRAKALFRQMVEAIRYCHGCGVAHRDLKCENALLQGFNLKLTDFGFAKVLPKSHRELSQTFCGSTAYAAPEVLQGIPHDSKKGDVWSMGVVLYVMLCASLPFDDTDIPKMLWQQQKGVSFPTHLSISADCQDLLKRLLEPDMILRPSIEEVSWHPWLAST
# B4: E3 ubiquitin-protein ligase LNX (Homo sapiens), Q8TBB1 (parent)
# chain: B3 chain
# partner: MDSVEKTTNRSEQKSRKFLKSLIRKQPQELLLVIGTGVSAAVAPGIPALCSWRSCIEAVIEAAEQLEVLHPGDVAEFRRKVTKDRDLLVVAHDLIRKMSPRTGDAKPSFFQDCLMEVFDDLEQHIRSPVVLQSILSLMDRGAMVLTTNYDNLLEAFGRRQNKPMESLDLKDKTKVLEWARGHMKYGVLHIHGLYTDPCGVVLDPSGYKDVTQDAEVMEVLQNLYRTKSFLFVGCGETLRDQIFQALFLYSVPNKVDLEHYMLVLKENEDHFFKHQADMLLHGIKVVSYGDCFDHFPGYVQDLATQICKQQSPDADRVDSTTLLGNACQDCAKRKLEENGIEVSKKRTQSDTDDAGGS
# B5: Muscleblind-like protein 1 (Homo sapiens), Q9NR56 (parent)
# chain: MAVSVTPIRDTKWLTLEVCREFQRGTCSRPDTECKFAHPSKSCQVENGRVIACFDSLKGRCSRENCKYLHPPPHLKTQLEINGRNNLIQQKNMAMLAQQMQLANAMMPGAPLQPVPMFSVAPSLATNASAAAFNPYLGPVSPSLVPAEILPTAPMLVTGNPGVPVPAAAAAAAQKLMRTDRLEVCREYQRGNCNRGENDCRFAHPADSTMIDTNDNTVTVCMDYIKGRCSREKCKYFHPPAHLQAKIKAAQYQVNQAAAAQAAATAAAMTQSAVKSLKRPLEATFDLGIPQAVLPPLPKRPALEKTNGATAVFNTGIFQYQQALANMQLQQHTAFLPPVPMVHGATPATVSAATTSATSVPFAATATANQIPIISAEHLTSHKYVTQM
# partner: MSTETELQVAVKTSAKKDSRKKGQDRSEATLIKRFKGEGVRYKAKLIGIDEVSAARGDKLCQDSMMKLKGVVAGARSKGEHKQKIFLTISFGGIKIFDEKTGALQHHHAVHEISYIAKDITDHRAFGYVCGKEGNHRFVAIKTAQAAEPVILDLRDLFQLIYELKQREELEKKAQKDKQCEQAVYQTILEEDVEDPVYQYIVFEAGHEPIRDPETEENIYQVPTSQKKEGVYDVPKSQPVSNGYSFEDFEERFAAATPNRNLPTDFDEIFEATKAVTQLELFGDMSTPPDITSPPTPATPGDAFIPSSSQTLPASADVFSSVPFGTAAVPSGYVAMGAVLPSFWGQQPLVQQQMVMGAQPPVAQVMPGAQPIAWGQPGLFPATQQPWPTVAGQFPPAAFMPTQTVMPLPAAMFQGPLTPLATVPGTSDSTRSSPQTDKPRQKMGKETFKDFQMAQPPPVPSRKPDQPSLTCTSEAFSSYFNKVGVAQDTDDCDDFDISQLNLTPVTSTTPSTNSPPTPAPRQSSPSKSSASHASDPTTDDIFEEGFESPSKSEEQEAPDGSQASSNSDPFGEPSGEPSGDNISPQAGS
# B6: Abl interactor 2 (Homo sapiens), Q9NYB9 (parent)
# chain: B1 chain
# partner: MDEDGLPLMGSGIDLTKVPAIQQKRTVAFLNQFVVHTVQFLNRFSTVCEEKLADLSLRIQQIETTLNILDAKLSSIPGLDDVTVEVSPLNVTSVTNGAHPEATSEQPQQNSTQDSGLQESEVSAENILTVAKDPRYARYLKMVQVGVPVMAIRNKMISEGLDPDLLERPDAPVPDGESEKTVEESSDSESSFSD
# B7: Isoform 2 of Synaptoporin (Homo sapiens), Q8TBG9-2 (parent)
# chain: MDPVSQLASAGTFRVLKEPLAFLRALELLFAIFAFATCGGYSGGLRLSVDCVNKTESNLSIDIAFAYPFRLHQVTFEVPTCEGKERQKLALIGDSSSSAEFFVTVAVFAFLYSLAATVVYIFFQNKYRENNRGPLIDFIVTVVFSFLWLVGSSAWAKGLSDVKVATDPKEVLLLMSACKQPSNKCMAIHSPVMSSLNTSVVFGFLNFILWAGNIWFVFKETGWHSSGQRYLSDPMEKHSSSYNQGGYNQDSYGSSSGYSQQASLGPTSDEFGQQPTGPTSFTNQI
# B8: Late cornified envelope protein 1B (Homo sapiens), Q5T7P3 (parent)
# chain: MSCQQNQQQCQPPPKCIPKCPPKCLTPRCPPKCPPKCPPVSSCCSVSSGGCCGSSSGGSCGSSSGGCCSSGGGGCCLSHHRRRRSHCHRPQSSGCCSQPSGGSSCCGGGSGQHSGGCC
# partner: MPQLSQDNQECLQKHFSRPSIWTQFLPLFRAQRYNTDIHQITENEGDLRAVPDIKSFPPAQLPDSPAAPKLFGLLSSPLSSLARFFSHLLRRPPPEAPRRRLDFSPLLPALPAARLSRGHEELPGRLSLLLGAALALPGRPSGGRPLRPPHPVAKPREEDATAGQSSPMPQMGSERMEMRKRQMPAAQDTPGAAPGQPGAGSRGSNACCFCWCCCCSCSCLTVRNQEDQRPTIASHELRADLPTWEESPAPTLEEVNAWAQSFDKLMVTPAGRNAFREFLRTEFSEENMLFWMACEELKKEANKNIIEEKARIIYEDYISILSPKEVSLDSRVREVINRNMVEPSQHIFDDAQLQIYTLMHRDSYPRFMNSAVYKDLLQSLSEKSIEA
# B9: Late cornified envelope protein 1B (Homo sapiens), Q5T7P3 (parent)
# chain: B8 chain
# partner: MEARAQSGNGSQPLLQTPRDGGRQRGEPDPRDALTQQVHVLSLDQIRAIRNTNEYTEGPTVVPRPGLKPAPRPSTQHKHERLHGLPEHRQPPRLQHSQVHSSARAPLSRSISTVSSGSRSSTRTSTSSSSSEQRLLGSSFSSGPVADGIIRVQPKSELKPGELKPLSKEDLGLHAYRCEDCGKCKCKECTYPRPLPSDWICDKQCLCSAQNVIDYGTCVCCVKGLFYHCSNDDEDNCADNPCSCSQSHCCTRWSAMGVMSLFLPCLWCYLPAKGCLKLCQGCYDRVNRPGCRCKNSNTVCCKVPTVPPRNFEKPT
# B10: E3 ubiquitin-protein ligase LNX (Homo sapiens), Q8TBB1 (parent)
# chain: B3 chain
# partner: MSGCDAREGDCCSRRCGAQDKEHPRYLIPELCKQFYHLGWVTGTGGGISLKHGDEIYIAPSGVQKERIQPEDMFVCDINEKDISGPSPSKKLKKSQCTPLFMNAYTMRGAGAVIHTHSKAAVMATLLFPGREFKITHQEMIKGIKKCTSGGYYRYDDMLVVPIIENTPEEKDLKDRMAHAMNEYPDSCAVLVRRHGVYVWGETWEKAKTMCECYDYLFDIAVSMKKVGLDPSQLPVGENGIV
# Variants of: B1
# Details: with cchcr_human CCHCR1, Q8TD31
row,Variant,effect of a mutation on the interaction
1,R373C,with no effect

# Variants of: B2
# Details: with skp1_human SKP1, P63208
# Chain of skp1_human SKP1, P63208 (P63208 whole entry): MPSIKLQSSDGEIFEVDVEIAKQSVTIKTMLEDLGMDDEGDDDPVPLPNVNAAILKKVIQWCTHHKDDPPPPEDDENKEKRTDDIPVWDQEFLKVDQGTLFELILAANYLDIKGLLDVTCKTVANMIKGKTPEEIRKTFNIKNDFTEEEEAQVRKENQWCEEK
row,Variant,effect of a mutation on the interaction
1,Y692F,with no effect

# Variants of: B3
# Details: with tssk3_human TSSK3, Q96PN8
row,Variant,effect of a mutation on the interaction
1,E295K,disrupting interaction strength

# Variants of: B4
# Details: with FAM118A
row,Variant,effect of a mutation on the interaction
1,E295K,disrupting interaction strength

# Variants of: B5
# Details: with dab1_human DAB1, O75553
row,Variant,effect of a mutation on the interaction
1,V45A,with no effect

# Variants of: B6
# Details: with wasc3_human WASHC3, Q9Y3C0
row,Variant,effect of a mutation on the interaction
1,R373C,with no effect

# Variants of: B6
# Details: with wasc3_human WASHC3, Q9Y3C0
# Remark: another data set of the same source
row,Variant,effect of a mutation on the interaction
1,E202K,with no effect

# Variants of: B7
# Details: with creb3_human CREB3, O43889
# Chain of creb3_human CREB3, O43889 (O43889 whole entry): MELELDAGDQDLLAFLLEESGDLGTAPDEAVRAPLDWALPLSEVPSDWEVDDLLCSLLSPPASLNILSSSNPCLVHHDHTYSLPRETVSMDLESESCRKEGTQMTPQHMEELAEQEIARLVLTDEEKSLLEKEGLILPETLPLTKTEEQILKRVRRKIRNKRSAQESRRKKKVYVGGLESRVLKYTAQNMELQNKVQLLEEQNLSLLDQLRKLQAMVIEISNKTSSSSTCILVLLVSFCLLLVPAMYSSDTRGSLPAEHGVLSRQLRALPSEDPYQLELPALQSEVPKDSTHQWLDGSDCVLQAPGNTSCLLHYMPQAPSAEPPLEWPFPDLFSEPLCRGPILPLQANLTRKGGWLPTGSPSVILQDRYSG
row,Variant,effect of a mutation on the interaction
1,A115P,with no effect

# Variants of: B8
# Details: with rgs20_human RGS20, O76081
row,Variant,effect of a mutation on the interaction
1,C16Y,with no effect

# Variants of: B9
# Details: with spy2_human SPRY2, O43597
row,Variant,effect of a mutation on the interaction
1,C16Y,with no effect

# Variants of: B10
# Details: with mtnb_human APIP
row,Variant,effect of a mutation on the interaction
1,E295K,disrupting interaction strength
